This is an account of results in WO2015116852A1 (dated 2015).

T1: Recombinant human monomeric IL-6R protein (human, UniProt P08887 20-358)
T1 construct: also called monomeric hIL-6R; human receptor
T1 sequence: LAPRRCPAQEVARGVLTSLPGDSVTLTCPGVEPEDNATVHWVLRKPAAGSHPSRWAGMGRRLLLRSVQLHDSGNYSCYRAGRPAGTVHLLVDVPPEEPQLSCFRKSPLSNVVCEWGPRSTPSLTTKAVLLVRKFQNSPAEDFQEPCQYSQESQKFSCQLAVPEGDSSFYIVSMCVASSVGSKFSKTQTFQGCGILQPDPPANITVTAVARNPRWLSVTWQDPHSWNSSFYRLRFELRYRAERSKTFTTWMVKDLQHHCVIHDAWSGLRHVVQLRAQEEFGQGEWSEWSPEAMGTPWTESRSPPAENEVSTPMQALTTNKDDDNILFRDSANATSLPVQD

T2: Recombinant monkey monomeric IL-6R protein (Macaca fascicularis, extracellular domain) (Macaca fascicularis, UniProt P08887 21-330 (human entry))
T2 construct: also called monkey IL-6R; monkey receptor
T2 chain: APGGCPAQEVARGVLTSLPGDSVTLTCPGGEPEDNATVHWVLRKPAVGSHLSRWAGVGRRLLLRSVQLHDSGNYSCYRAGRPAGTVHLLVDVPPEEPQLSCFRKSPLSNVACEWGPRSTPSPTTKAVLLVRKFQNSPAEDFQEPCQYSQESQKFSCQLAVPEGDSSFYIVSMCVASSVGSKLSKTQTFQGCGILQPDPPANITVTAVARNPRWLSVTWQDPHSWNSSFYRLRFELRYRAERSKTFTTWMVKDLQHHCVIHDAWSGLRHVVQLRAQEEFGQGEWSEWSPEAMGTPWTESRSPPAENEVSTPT

T3: hIL-6R recombinant protein (human, UniProt P08887 20-358)
T3 construct: also called hlL-6R recombinant protein; human IL-6R
T3 sequence: T1 sequence

B1: VV1G4-7 (antibody, V domains shown)
VH: QVQLVQSGAEVKEPGASVKVSCKASGYTFTSYDIIWVRQATGQGLEWMGWMNPNSGNTGYTQNLQGRVTLTRNTSITTVYMELSSLSSEDTAVYYCARDYSSHYYGLDVWGQGTTVTVSS
VL: DIQLTQSPSFLSTSIGDRVTITCWASQDISNYLAWYQQKPGKAPKLLIFVASTLQSGVPSRFSGSGSGTEFTLTISSLQPEDFATYYCQQFNSYPLTFGGGTKVEIK
notes: also called W1 G4; W1 G4-7
B2: VQ8F11-21 (antibody, V domains shown)
VH: EVQLVESGGGLVQPGRSLRLSCAASRFTFDDYAMHWVRQAPGKGLEWVSGISWNSGRIGYADSVKGRFTISRDNAENSLFLQMNGLRAEDTALYYCAKGRDSFDIWGQGTMVTVSS
VL: DIQMTQSPSSVSASVGDRVTITCRASQGISSWLAWYQQKPGKAPKLLIYGASSLESGVPSRFSGSGSGTDFTLTISSLQPEDFASYYCQQANSFPYTFGQGTKLEIK
notes: also called mAb1; sarilumab
B3: VV6A9-5 (antibody, V domains shown)
VH: B2 VH with R26G, M34L, I51V, S55G, E76K, G85S, A88V, S102A, M111L
VL: B2 VL with G50A, E55Q, S85T, Q90H, N92Y
notes: also called W6A9-5
B4: VQ8A9-6 (antibody, V domains shown)
VH: EVQLVESGGNLVQPGRSLRLSCAASGFIFDDYAMHWVRQAPGKGLEWVSGISWNSGSIGYADSVKGRFTISRDNAKNSLYLQMNSLRAEDTALYYCAKDGGSSWLPFVYYYGMDVWGQGTTVTVSS
VL: EIVMTQSPATLSVSPGERATLSCRASQSISSNFAWYQQKPGQAPRLLIYGASTRATGIPARFSGSGSGTDFTLTISSLQSEDFAVYYCQQYSSWPPYTFGQGTKLEIK
B5: VV3D8-4 (antibody, V domains shown)
VH: B2 VH with R26G, M34L, E76K, G85S, S102A, M111L
VL: B2 VL with G50A, E55Q, S85T
notes: also called W3D8
B6: VV6F12-11 (antibody, V domains shown)
VH: B1 VH with V20I, N57D, T58R, N73D, T77S, S87R, S102N
VL: B1 VL with T13A, I15V, K107R
B7: VV9A6-11 (antibody, V domains shown)
VH: QVQLVQSGAEVKKPGASVKVSCKASGYTFTSYGISWVRQAPGQGLEWMGWISAYNDDTNYAQKFQGRVTMTTDTSTSTAYMELRSLRSDDTAVYYCAREAQLVLYYYYGMDVWGQGTTVTVSS
VL: EIVLTQSPATLSLSPGERATLSCRASQSVSSFLAWNQQKPGQAPRLLIYDASNRATGIPARFSGSGSGTDFTLTISSLEPEDFAVYYCQQRSNWPYIFGQGTKLEIK
notes: also called W9A6
B8: VV6C10-3 (antibody, V domains shown)
VH: QVQLVQSGAEVKKPGASVKVSCKASGFNFFHYGITWVRQAPGQGLEWMGWISTYNGDTIYAQKVQGRVTMTTDTATSTAYMELRSLRSDDTAVYYCARSEQQVDYYFYGMDVWGQGTTVTVSS
VL: EIVLTQSPATLSLSPGERATLSCRASQSVSSYLAWYQQKPGQAPRLLIYDASNRATGIPARFSGSGSGTDFTLTISSLEPEDFAFYYCQQRNNRPPFTFGPGTKVDVR
notes: also called W6C10-3

Where a chain is given by its changes, count along the chain named.

The first assay addresses T1, Recombinant human monomeric IL-6R …. Kind of assay: BIAcore, antibody captured on anti-mouse Fc, monomeric receptor injected. (Surface plasmon resonance follows binding to a sensor surface in real time, without labels.)
For B1, the Kd (usually the free concentration of one partner at which half of the binding sites on the other are occupied at equilibrium, for simple one-to-one binding) is 0.241 nM.

In the next assay the target is T2, Recombinant monkey monomeric IL-6R …. Described as above.
Turning to B2, the binding result is “binds”.

As for B3, the binding result was “binds”.

As to B1, the binding result is “no binding (tested: 1.25 - 40 nM)”.

For B4, the binding result is reported as “binds”.

For a further assay, the target named is T3, hIL-6R recombinant protein. The assay is described as follows: competition ELISA on plate-coated hIL-6R, competitor control antibody; similar SPR experiment.
Regarding B5, the binding result was “binds”.

Turning to B2, the binding result was “binds”.

In the case of B3, the binding result is on record as “binds”.

Turning to B6, the binding result was “binds”.

For B7, the binding result is “binds”.

For B4, the binding result is “binds”.

On to B8, for which the binding result was “binds”.
